Measurements taken from patent publication US20110135636A1 (SYMPHOGEN A S, published 2011).

How the values were obtained:
[1] = molecular target: T1, recombinant human EGFR extracellular domain with 6xHis (human, UniProt P00533 25-645); experiment: SPR competition, competitor 1284
T1 construct: In-house produced; also called 6xHis EGFR ECD; soluble human EGFR ECD; not shown: 6xHis tag
Summary of the method: (§1)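 Biacore 3000 SPR with His-tagged EGFR ECD captured on a CM5 chip carrying polyclonal anti-His antibody. A reference run set each anti-EGFR mAb's maximal binding (40 μg/ml). Competitor then saturated the captured antigen before the test mAb was injected again. Inhibition = Ru max before vs after competition.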

[2] = molecular target: T1, recombinant human EGFR extracellular …; experiment: SPR competition, competitor Erbitux
Summary of the method: as §1

[3] = molecular target: T1, recombinant human EGFR extracellular …; experiment: SPR competition, competitor 1320
Summary of the method: as §1

[4] = molecular target: T1, recombinant human EGFR extracellular …; experiment: SPR competition, competitor Vectibix
Summary of the method: as §1

[5] = molecular target: T1, recombinant human EGFR extracellular …; experiment: SPR competition, competitor Erbitux; remark: listed apart in the source
Summary of the method: as §1

[6] = molecular target: T1, recombinant human EGFR extracellular …; experiment: SPR competition, competitor 1347
Summary of the method: as §1

[7] = molecular target: T1, recombinant human EGFR extracellular …; experiment: SPR competition, competitor Ab-10
Summary of the method: as §1

[8] = molecular target: T1, recombinant human EGFR extracellular …; experiment: SPR competition, competitor Ab-3
Summary of the method: as §1

[9] = molecular target: T1, recombinant human EGFR extracellular …; experiment: SPR competition, competitor ICR10
Summary of the method: as §1

[10] = molecular target: T1, recombinant human EGFR extracellular …; experiment: SPR competition, competitor 1030corr
Summary of the method: as §1

[11] = molecular target: T1, recombinant human EGFR extracellular …; experiment: SPR competition, competitor 1254
Summary of the method: as §1

[12] = molecular target: T1, recombinant human EGFR extracellular …; experiment: SPR competition, competitor 1277
Summary of the method: as §1

[13] = molecular target: T1, recombinant human EGFR extracellular …; experiment: SPR competition, competitor Ab-11
Summary of the method: as §1

[14] = molecular target: T1, recombinant human EGFR extracellular …; experiment: SPR competition, competitor 1261
Summary of the method: as §1

[15] = molecular target: T2, EGFRvIII (deletion mutant EGFR) (human, UniProt P00533 25-645, limits assumed); experiment: EGFRvIII ELISA (Example 1)
T2 construct: also called deltaEGFR; rhEGFRvIII

[16] = molecular target: T1, recombinant human EGFR extracellular …; experiment: SPR competition, competitor Vectibix; remark: listed apart in the source
Summary of the method: as §1

[17] = molecular target: T1, recombinant human EGFR extracellular …; experiment: SPR competition, competitor 1257
Summary of the method: as §1

[18] = molecular target: T1, recombinant human EGFR extracellular …; experiment: SPR competition, competitor 1208
Summary of the method: as §1

[19] = molecular target: T1, recombinant human EGFR extracellular …; experiment: SPR competition, competitor 992 corr
Summary of the method: as §1

[20] = molecular target: T1, recombinant human EGFR extracellular …; experiment: SPR competition, competitor 1260
Summary of the method: as §1

[21] = molecular target: T1, recombinant human EGFR extracellular …; experiment: SPR competition, competitor 1024
Summary of the method: as §1

[22] = molecular target: T1, recombinant human EGFR extracellular …; experiment: SPR competition, competitor 1344
Summary of the method: as §1

[23] = molecular target: T1, recombinant human EGFR extracellular …; experiment: SPR competition, competitor Ab-1
Summary of the method: as §1

[24] = molecular target: T1, recombinant human EGFR extracellular …; experiment: SPR competition, competitor Ab-5
Summary of the method: as §1

% inhibition [1]	% inhibition [2]	% inhibition [3]	% inhibition [4]	% inhibition [5]	% inhibition [6]	% inhibition [7]	% inhibition [8]	% inhibition [9]	% inhibition [10]	% inhibition [11]	% inhibition [12]	% inhibition [13]	% inhibition [14]	binding result [15]	% inhibition [16]	% inhibition [17]	% inhibition [18]	% inhibition [19]	% inhibition [20]	Binder	also measured
61%	-4%	2%	-5%	-4%	70%	-1%	11%	17%	-2%	0%	6%	86%	-23%	no binding	-6%	19%	0%	7%	41%	antibody 1347 (antibody, human IgG1, kappa, V domains shown, Chimeric IgG1 kappa) VH: QVQLKESGPGLVAPSQSLSITCTVSGFSLTGHGVNWVRQPPGKGLEWLGMIWGDGSTDYNSTLKSRLSISKDNSKSQVFLKMNSLQTDDTARYYCARGYGYLYYFDYWGQGTTLTVSS VL: ENVLTQSPAIMSASPGEKVTMTCRASSSVSSSYLHWYQQKSGASPKLWIYSTSNLASGVPARFSGSGSGTSYSLTVNSVETEDAATYYCHQYSGFPFTFGSGTKLELKR	% inhibition [21]: 4%; % inhibition [22]: 38%; % inhibition [23]: -3%; % inhibition [24]: -1%
76%	-6%	2%	-7%	-6%	65%	-3%	11%	15%	-2%	0%	7%	85%	-9%	no binding	-8%	27%	1%	-9%	86%	antibody 1308 (antibody, human IgG1, kappa, V domains shown, Chimeric IgG1 kappa) VH: EVQLQQSGAELVRPGSSVKISCKASGYAFSSYWMNWVRQRPGQGLEWIGQIYPGDGDTNYNGKFKGRATLTANKSSSTAYMQLSSLTSEDSAVYFCARRASSLYDVYPYYFDYWGQGTTLTVSS VL: DIQMTQTTSSLSASLGDRVTISCRASQDISNYLNWYQQKPDGTVKVLIYYTSRLHSGVPSRFSGSGSGTDYSLTISNLEQEDIATYFCQQGNTLPYTFGGGTKLEIKR	% inhibition [21]: 3%; % inhibition [22]: 67%; % inhibition [23]: -5%; % inhibition [24]: -4%
